Test system: differentiated HL-60 neutrophils
Test: vE/D ratio and ectodomain charge estimation, under-agarose cells immobilized with Latrunculin A in an electric field
Assay type: cell-based, human
Settings: averaged across all electric field conditions; ± SEM
Experimental: Experimental Setup. Cells were resuspended to a concentration of 2×10^6 cells/ml in L-15 Medium with 10% hiFBS. With an ibiTreat μ-Slide-I (Ibidi, #80106) placed on a 37° C. heat block, 100 μL of cells were added to the channel and incubated for 5 minutes to allow them to sediment and loosely adhere to the bottom coverslip. Warm, liquid 2.5% UltraPure low melting point agarose (Invitrogen of Waltham, MA, #16520-050) in L-15 with 10% hiFBS was added to one channel reservoir and then centrifuged at 28-37° C. for 5 min at 700 g. This was performed in a custom 3D-printed swinging bucket rotor plate adaptor (design available upon request). Immediately after centrifugation, the slide was incubated on a 20° C. cooling plate (STIR-KOOL, Ladd Research of Essex Junction, VT; #SK-12D-AW) for 5 minutes to gel. […] L-15 media with 10% hiFBS was added to both reservoirs. […]
Quantification of vE/D Ratio and Estimation of Charge. […] Under the imaging conditions (800 nm axial resolution), the measured fluorescence intensities will reflect fluorescence predominantly at this surface, and the biological system is treated as a flat two-dimensional surface. […]

B1: Galvanin: single-pass transmembrane protein (161 amino acids, UniProt ID: Q6P9G4), electric field sensor (protein)
chain: NYEELENSGDTTVESERPNKVTIPSTFAAVTIKETLNANINSTNFAPDENQLEFILMVLIPLILLVLLLLSVVFLATYYKRKRTKQEPSSQGSQSALQTYELGSENVKVPIFEEDTPSVMEIEMEELDKWMNSMNRNADFECLPTLKEEKESNHNPSDSES
- net charge estimated from vE/D: −18 e

Reference: patent US20250145926A1, “DEVICES, METHODS, AND SYSTEMS FOR ASSESSING CELL MIGRATION AND RELATED PROCESSES” (University of Washington, priority 2023, published 2025)
